Where “and” joins values, the source holds several entries; their conditions need not be identical. Identical values can stand only once. Bounds are passed on as bounds.

Sequences and labels used below:
T1: human Siglec-15 ECD-his protein (Acrobiosystems, Cat #: SG5-H52H3) (human, UniProt Q6ZMC9 20-263)
T1 construct: Bought protein; only its extracellular domain stood in the assay; also called human Siglec-15 protein; recombinant human Siglec-15 protein; not shown: his tag
T1 sequence: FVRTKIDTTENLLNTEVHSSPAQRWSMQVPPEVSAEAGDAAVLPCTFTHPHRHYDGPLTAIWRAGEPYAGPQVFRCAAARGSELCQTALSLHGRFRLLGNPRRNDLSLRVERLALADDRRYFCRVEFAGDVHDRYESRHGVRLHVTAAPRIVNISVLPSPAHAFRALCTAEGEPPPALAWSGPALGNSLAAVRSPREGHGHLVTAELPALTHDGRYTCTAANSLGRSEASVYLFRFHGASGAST

B1: PR301286 (antibody, human IgG1, kappa, V domains shown)
VH: QVQLVESGGGVVQPGKSLRLSCAASGFTFSSYGMHWVRQAPGKGLEWVAVIWIDGSNRYYAASVKGRFTISRDNSKNTLYLQMNSLRAEDTAVYYCTRGYGDYAYVMDVWGQGASVTVSS
VL: DIVMTQSPLSLPVTPGEPASISCRSSQSLLPGNGYNYLDWYLQKPGQSPQLLIYLGSNRASGVPDRFSGSGSGTDFTLKISRVEAEDVGIYYCMQALQSPLTFGGGTKVEIKR
notes: Parent of the PTM variants PR301286-1, -3, -5, -6, -7
B2: PR300066 (Tab) (antibody, human IgG1, kappa, V domains shown)
VH: QVQLQQPGAELVKPGASVKMSCKASGYTFTSYWITWVIQRPGQGLEWIGDIYCGSDTMHYNEKFKNKATLTVDTSSSTAYMQLSSLTSEDSAVYYCARWWDYGSSYDYFDYWGQGTTLTVSS
VL: DIKMTQSPSSMYASLGERVTITCKASQDINSYLSWFQQKPGKSPKTLIYRANRLVDGVPSRFSGSGSGQDYSLTISSLEYEDMGIYYCLQYDEFPYTFGGGTKLEIKR
notes: variable region from clone 5G12 of WO 2018/057735A1, on human IgG1/kappa constant regions; also called 5G12
B3: PR301289 (antibody, human IgG1, kappa, V domains shown)
VH: QVQLVQSGAEVKKPGASVKVSCRASGYTFTSYDINWVRQATGQGLEWMGWMNPHSGDTGYAQNFQGRVTMTWNTSISTAYMELSSLRSEDTAVYYCARRRVGVYYYGMDVWGQGTTVTVSS
VL: ENVLTQSPGTLSLSPGERATLSCRASQSVSSSYFGWYQQKPGQAPRLLIYGASSRATGIPDRFSGSGSGTDFTLTISRLEPEDFAVYYCQQYGSSPITFGQGTRLEIKR
notes: Parent of the PTM variants PR301289-1 and -2
B4: PR301285 (antibody, human IgG1, kappa, V domains shown)
VH: QVQLQESGPGLVKPSETLSLTCTVSGGSMISYYWSWLRQPPGKGLEWIGYIYYSGNTNYNPSLKSRITIAVDTSKNQFSLKLNSVTAADTAVYYCARERELHPYYFDYWGQGTLVTVSS
VL: DIQLTQSPSFLSASVGDRVTITCRASQGIDNYLAWYQQKPGKAPKVLIYAASTLQSGVPSRFSGSGSGTEFTLTISSLQPEDFATYYCQQLNSYPLTFGGGTKVEIKR

The first assay addresses T1, human Siglec-15 ECD-his protein …. The assay is described as follows: BLI (Octet RED96), antibody on AHC sensor, Siglec-15 ECD-his as analyte. Here is the method: Recombinant Human Siglec-15 Protein Affinity was determined using an Octet RED96 instrument (ForteBio) and an anti-human IgG Fc capture sensor (AHC biosensor, ForteBio, Cat #: 18-5060) according to the detailed procedures and methods provided by the manufacturer. Specifically, candidate antibodies were each diluted to a final concentration of 6 µg/mL and directly immobilized on AHC biosensors for kinetic measurements. The antigenic protein Siglec-15 ECD-his protein (Acrobiosystems, Cat #: SG5-H52H3) was diluted with 10× Kinetics buffer to 3 concentrations of 60 nM, 30 nM, and 15 nM separately and injected as the analyte for 120 s with a dissociation time of 400 s and then subjected to regeneration with 10 mM glycine HCl (pH 1.5) for 15 s. The association rate (kon) and dissociation rate (kdis) were calculated using a simple one-to-one Languir binding model (Octet Red96 data analysis software). The equilibrium dissociation constant (kD) was calculated as the ratio of kdis/kon.
Broadly, the Kd is the concentration at which binding is half-saturated. A higher Kd goes with lower affinity. As usually defined, the koff is the rate constant with which the complex falls apart. High values mean fast dissociation, low ones slow dissociation. The term kon denotes the second-order rate constant of association. On to B1, for which the Kd was below 0.001 nM; the koff was below 1e-07 s⁻¹; the kon is 368000 M⁻¹ s⁻¹ and 292000 M⁻¹ s⁻¹.

Regarding B2, the equilibrium dissociation constant (Kd) was 0.13 nM and 0.293 nM; the dissociation rate constant (koff) is 9.5e-05 s⁻¹ and 0.000182 s⁻¹; the kon is 730000 M⁻¹ s⁻¹ and 621000 M⁻¹ s⁻¹.

Turning to B3, binding was characterised by a dissociation constant (Kd) of 0.173 nM, the off-rate constant (koff) came to 6.47e-05 s⁻¹ and the association rate constant (kon) was 373000 M⁻¹ s⁻¹.

Take B4: the dissociation constant (Kd) is below 0.001 nM, the koff was below 1e-07 s⁻¹ and the kon came out at 529000 M⁻¹ s⁻¹.

The next assay deals with T2, human PD-L1/B7-H1-his protein (Acrobiosystems, Cat PD1-H5229) (human, UniProt Q9NZQ7 19-238).
T2 construct: Bought protein; not shown: his tag
T2 sequence (Q9NZQ7 19-238 limits assumed): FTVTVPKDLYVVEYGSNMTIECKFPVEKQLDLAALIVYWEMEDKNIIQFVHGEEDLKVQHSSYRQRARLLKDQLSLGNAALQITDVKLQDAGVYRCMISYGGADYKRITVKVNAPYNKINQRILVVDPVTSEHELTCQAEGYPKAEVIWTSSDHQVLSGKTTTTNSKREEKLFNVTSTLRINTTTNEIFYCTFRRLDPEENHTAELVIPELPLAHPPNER
Nature of the assay: ELISA on coated human PD-L1/B7-H1-his, antibody at 100 nM and 10 nM, goat anti-human IgG-HRP, OD450. The method, then:
Human Siglec-15 ECD-his protein (Acrobiosystems, Cat SG5-H52H3), human Siglec-2-his protein (Acrobiosystems, Cat CD2-H52H8), human Siglec-4a-his protein (Acrobiosystems, Cat MAG-H52H8), human Siglec-3-his protein (Acrobiosystems, Cat CD3-H5226), human Siglec-10-his protein (Acrobiosystems, Cat SIO-H52H9), and human PD-L1/B7-H1-his protein (Acrobiosystems, Cat PD1-H5229), each at 1 μg/mL and dissolved in PBS, were each added to an ELISA plate at 100 μL/well for coating and the plate was incubated overnight at 4° C. The ELISA plate was then blocked with PBST (PBS+0.05% Tween 20) containing 2% BSA at 200 μL/well and incubated at 37° C. for 1 h. The ELISA plate was washed 4 times with PBST. The anti-Siglec-15 antibody diluted in a gradient (concentrations: 100 nM and 10 nM) was added to the ELISA plate at 100 μL/well and the plate was incubated at 37° C. for 1 h. The ELISA plate was washed 4 times with PBST. The goat anti-human IgG (H+L)-HRP (1:5000, Jackson, Cat 109-035-088) was added at 100 μL/well and the plate was incubated at 37° C. for 1 h. The ELISA plate was washed 4 times with PBST. The TMB substrate (Biopanda, Cat TMB-S-003) was added at 100 μL/well, and the plate was incubated at room temperature for 5 min, and then the stop buffer (Solarbio, Cat #: C1058) was added at 100 μL/well to stop the reaction.
For B1, the binding result is given as “no binding (tested: 100 nM)”.

B2: the binding result is on record as “no binding (tested: 100 nM)”.

In the case of B3, the binding result is given as “no binding (tested: 100 nM)”.

For the molecule B4, the binding result is recorded as “no binding (tested: 100 nM)”.

For the origin of these results see patent publication US20260070974A1 (NONA BIOSCIENCES SUZHOU, published 2026).
